Test results as given in the supplement of paper PMC9112550, “Optimization of the antimicrobial peptide Bac7 by deep mutational scanning” (BMC Biology, 2022).

Tested on: Escherichia coli TOP10
Experiment: shrunken log2 fold change of peptide-encoding DNA abundance (4.5 h post-induction vs induction); higher = less antimicrobial activity (less host growth inhibition)
Conditions: time post-induction: 4.5 h; library: site-saturation at positions 5, 18, 19, 20
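Note: peptides expressed intracellularly from a pBAD plasmid library in pooled LB shake-flask culture, induced with 0.3% L-arabinose, DNA abundance read by NGS, three biological replicates, DESeq2 with apeglm shrinkage.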

Sequence	shrunken log2 fold change
RRIRMRPPRLPRPRPRPGWLPRP	0.533
RRIRLRPPRLPRPRPRPVRNPRP	0.0234
RRIRIRPPRLPRPRPRPKFKPRP	-0.0251
RRIRSRPPRLPRPRPRPAIPPRP	-0.139
RRIRQRPPRLPRPRPRPIDPPRP	0.0328
RRIRYRPPRLPRPRPRPCRVPRP	0.00293
RRIRVRPPRLPRPRPRPTSQPRP	0.00273
RRIRERPPRLPRPRPRPHYGPRP	-0.249
RRIRLRPPRLPRPRPRPVRGPRP	0.682
RRIRFRPPRLPRPRPRPMTHPRP	-0.401
RRIRVRPPRLPRPRPRPIQPPRP	0.0215
RRIRTRPPRLPRPRPRPIEYPRP	-0.233
RRIRDRPPRLPRPRPRPTDHPRP	-0.0425
RRIRRRPPRLPRPRPRPAHLPRP	0.178
RRIRFRPPRLPRPRPRPTTIPRP	-0.548
RRIRKRPPRLPRPRPRPFDSPRP	-0.0504
RRIRPRPPRLPRPRPRPVYVPRP	-0.167
RRIRHRPPRLPRPRPRPTYVPRP	-0.143
RRIRNRPPRLPRPRPRPNKTPRP	-0.0415
RRIRKRPPRLPRPRPRPGRQPRP	0.143
RRIRKRPPRLPRPRPRPCIKPRP	0.193
RRIRMRPPRLPRPRPRPVQAPRP	1.26
RRIRTRPPRLPRPRPRPADWPRP	0.446
RRIRCRPPRLPRPRPRPHVGPRP	0.0562
RRIRIRPPRLPRPRPRPVQYPRP	-0.106

Sequence	shrunken log2 fold change
RRIRSRPPRLPRPRPRPHPTPRP	0.129
RRIRFRPPRLPRPRPRPCFTPRP	-0.237
RRIRSRPPRLPRPRPRPTRIPRP	-0.0163
RRIRTRPPRLPRPRPRPILKPRP	-0.348
RRIRNRPPRLPRPRPRPKRIPRP	-0.107
RRIRLRPPRLPRPRPRPYWTPRP	-0.435
RRIRPRPPRLPRPRPRPGLPPRP	0.0398
RRIRQRPPRLPRPRPRPCNSPRP	-0.0261
RRIRFRPPRLPRPRPRPKYIPRP	-0.678
RRIRTRPPRLPRPRPRPCHTPRP	-0.166
RRIRHRPPRLPRPRPRPQTGPRP	-0.169
RRIRPRPPRLPRPRPRPPCDPRP	0.182
RRIRCRPPRLPRPRPRPLFDPRP	-0.426
RRIRRRPPRLPRPRPRPLQCPRP	0.18
RRIRQRPPRLPRPRPRPIGHPRP	-0.281
RRIRERPPRLPRPRPRPKCWPRP	0.23
RRIRKRPPRLPRPRPRPVDTPRP	0.0388
RRIRSRPPRLPRPRPRPNFMPRP	-0.43
RRIRIRPPRLPRPRPRPKYTPRP	-0.686
RRIRFRPPRLPRPRPRPEIFPRP	-0.139
RRIRARPPRLPRPRPRPRTLPRP	0.226
RRIRVRPPRLPRPRPRPMRTPRP	-0.0139
RRIRIRPPRLPRPRPRPPVCPRP	0.108
RRIRFRPPRLPRPRPRPFKDPRP	-0.112
RRIRDRPPRLPRPRPRPVISPRP	0.277

Sequence	shrunken log2 fold change
RRIRCRPPRLPRPRPRPTRWPRP	0.284
RRIRGRPPRLPRPRPRPVAWPRP	0.508
RRIRTRPPRLPRPRPRPMKRPRP	0.298
RRIRWRPPRLPRPRPRPLRAPRP	1.19
RRIRFRPPRLPRPRPRPGEFPRP	-0.239
RRIRDRPPRLPRPRPRPFMKPRP	-0.0698
RRIRYRPPRLPRPRPRPKNIPRP	-0.127
RRIRLRPPRLPRPRPRPKMLPRP	-0.0541
RRIRARPPRLPRPRPRPAYKPRP	-0.0413
RRIRYRPPRLPRPRPRPYNHPRP	-1.5
RRIRERPPRLPRPRPRPRVEPRP	-0.182
RRIRLRPPRLPRPRPRPRMGPRP	0.135
RRIRLRPPRLPRPRPRPYRAPRP	-0.21
RRIRLRPPRLPRPRPRPTDRPRP	-0.00223
RRIRYRPPRLPRPRPRPLDNPRP	-0.0671
RRIRVRPPRLPRPRPRPEAAPRP	0.635
RRIRMRPPRLPRPRPRPWYNPRP	-0.044
RRIRVRPPRLPRPRPRPPIFPRP	-0.067
RRIRMRPPRLPRPRPRPQHPPRP	-0.0395
RRIRERPPRLPRPRPRPQFFPRP	-0.0736
RRIRMRPPRLPRPRPRPCMYPRP	0.051
RRIRRRPPRLPRPRPRPPTGPRP	0.625
RRIRDRPPRLPRPRPRPPNDPRP	0.14
RRIRTRPPRLPRPRPRPQGLPRP	-0.0814
RRIRFRPPRLPRPRPRPSQTPRP	-0.304
